Measured values published in EP4591887A1, “GPC3 ANTIBODY-DRUG CONJUGATE AND USE THEREOF” (priority 2022, dated 2024).

Columns and labels:
[1] = molecular target: T1, human GPC3 (Glypican-3) (human, UniProt P51654 25-580); test: cell-based or functional assay
[2] = system: PDX model LIV#219 of nude mice with human liver cancer; test: Antitumor activity in LIV#219 liver cancer PDX model; type: in vivo, BALB/c nude mice; details: 3 mg/kg, Day 26
Protocol: The antitumor activity of GPC3-ADCs was tested in an LIV#219 liver cancer PDX model. The model has a higher expression level of GPC3 RNA, and a positive expression of GPC3 as confirmed by FACS analysis.
The process of the establishment of a PDX model of nude mice with human liver cancer was as follows: A tumor tissue with a volume size of about 15-30 mm^3 was transplanted subcutaneously under the back of the BALB/c nude mice. When the tumor volume reached 250-360 mm^3, the mice were divided into a total of 4 groups by a randomized block method, with 6 mice per group, ensuring uniformity in tumor volume and balance in body weight between these groups. The groups included a vehicle group, a 3 mg/kg GC33-L1-D1 administration group, a 3 mg/kg Hu 52H5D3B8-7-L1-D1 administration group, and a 3 mg/kg Hu 52H5D3B8-8-L1-D1 administration group.
Data analysis: During the experiment, the tumor volume was measured twice a week. The calculation formula for the tumor volume (TV) is: TV = l × w^2 / 2, in which l and w represent the measured length and width of the tumor, respectively. According to the measurement results, the relative tumor volume (RTV) was calculated by RTV = Vf / V0, in which V0 is the tumor volume measured at the time of grouping for administration (i.e., Day 0), and Vf is the tumor volume measured on the last day. […]

[3] = molecular target: T1, human GPC3 (Glypican-3); test: cell-based or functional assay; remark: listed apart in the source

B1: GC33-L1-D1 (antibody, V domains shown)
VH: QVQLVQSGAEVKKPGASVKVSCKASGYTFTDYEMHWVRQAPGQGLEWMGALDPKTGDTAYSQKFKGRVTLTADKSTSTAYMELSSLTSEDTAVYYCTRFYSYTYWGQGTLVTVSS
VL: DVVMTQSPLSLPVTPGEPASISCRSSQSLVHSNGNTYLHWYLQKPGQSPQLLIYKVSNRFSGVPDRFSGSGSGTDFTLKISRVEAEDVGVYYCSQNTHVPPTFGQGTKLEIK
modifications: MC-vc-PAB-MMAE (L1-D1) on cysteine thiols of the antibody freed by TCEP reduction of disulfide bonds; positions not given
EC50 value of cytotoxicity, HepG2 cells (96 h, PrestoBlue) [1]: 73.2 ng/mL | EC50 value of cytotoxicity, Huh7 cells (96 h, PrestoBlue) [1]: 78.6 ng/mL | relative tumor proliferation rate (T/C) (%) [2]: 54.90% | tumor growth inhibition rate (TGI %) [2]: 45.10% | Percentage reduction of GPC3 on cell surface (%), Huh7 cells, 2 h at 37°C against ice, FACS [3]: 63.1%
